Columns and labels:
HUVECs [1] = assay: Migration of endothelial cells toward fibronectin, vitronectin or collagen (Example 5-2); type: cell-based, human
Procedure: The undersurface of a transwell plate was coated with each of fibronectin, vitronectin and collagen, and then, a test was performed in the same manner as in Example 4-2 above.

HUVECs [2] = assay: Transwell migration of endothelial cells toward βig-h3 (Example 4-2); type: cell-based, human
Procedure: The present inventors tested whether the fas-1 domain has the activity to inhibit the migration of endothelial cells (Nam, J. O. et al., J. Biol. Chem., 278:25902-25909, 2003). Cell migration assay was performed in a transwell plate (8 μm pore size, Costar, Cambridge, Mass.). The undersurface of the membrane was coated with the recombinant βig-h3 His-1-b (10 μg/ml) protein prepared in Example 1, at 4° C., and then, blocked for 1 hour at room temperature with PBS buffer containing 2% BSA. Meanwhile, HUVECs were added with the fas-1 domain (βig-h3 D-IV) prepared in Example 1, and preincubated at 37° C. for 30 minutes. A control was added with 2% BSA. Then, the HUVECs preincubated with the fas-1 domain were suspended in medium at a density of 3×10^5 cells/ml, and 0.1 ml of the cell suspension was added to the upper compartment of the filter. The cells were allowed to migrate at 37° C. for 6-8 hours.
Migration was terminated by removing the cells from the upper compartment of the filter with a cotton swab. The filters were fixed with 8% glutaraldehyde and stained with crystal violet. The extent of cell migration was determined by light microscope, and within each well, cell counting was done in nine randomly selected fields HPF (Microscopic high power fields, x200).

HUVECs [3] = assay: Endothelial tube formation assay on Matrigel (Examples 9-1 and 11); type: cell-based, human
Procedure: First, 100 μl of Matrigel (Chemicon, International Inc, Temecula, Calif.) was added to each well of a 96-well plate and allowed to polymerize. HUVECs were suspended in medium at a density of 3×10^5 cells/ml, and 0.1 ml of the cell suspension was added to each well of the plate coated with Matrigel. At this time, 5 μM or 10 μM of the fas-1 domain (βig-h3 D-IV) prepared in Example 1 above was added together. A control was either treated with BSA or had no treatment. Thereafter, the cells were incubated at 37° C. for 16-18 hours. The cells were photographed, and endothelial tubes were counted and averaged.
For this purpose, the second fas-1 domain of βig-h3 (βig-h3 D-II) was prepared in the same manner as in Example 1-1 above. Since each domain of stabilin-II is insoluble, it was prepared in the form of soluble protein by cloning into the BamHI/XhoI sites of a Nus-conjugated pET43.1 vector (Novagen, USA). The prepared recombinant proteins were named “Nus-fas3” and “Nus-fas7”, respectively. A control to the second fas-1 domain of βig-h3 was treated with BSA, and a control to the fas-1 domain of stabilin-II was treated with a Nus protein. Thereafter, an endothelial tube formation assay was performed in the same manner as in Example 9-1.

[4] = tested on: Melanoma cells B16F10 tumor; assay: B16F10 subcutaneous tumor model, tumor growth and CD31 blood vessel count (Example 10-3); type: in vivo, BALB/c nude mouse; conditions: 9 mg/kg or 18 mg/kg into the abdominal cavity one time a day
Procedure: Melanoma cells B16F10 were suspended in medium at a density of 1×10^7 cells/ml. 0.1 ml of the cell suspension was injected subcutaneously to 5-6 week old BALB/c nude mouse (purchased from Jung-Ang Animal Inc. Ltd., Korea) to make a subcutaneous tumor model. When the volume of the tumor reached about 25 mm^3, mice having similar tumor size were selected and divided into three groups. The fas-1 domain (βig-h3 D-IV) prepared in Example 1 above was injected into the abdominal cavity of the mice of each group at the amount of 9 mg/kg or 18 mg/kg one time a day. A control was injected with saline solution. Thereafter, the body weight and tumor size of the mice were checked at intervals of three days. The diameter of the tumor was measured with slide calipers, and the volume of the tumor was calculated according to the equation 1 above.
Meanwhile, the tumor was removed after a given time, photographed with a stereoscopic microscope, weighed, and then fixed in 4% paraformaldehyde. The fixed tumor was immersed in 30%, 20% and 10% sucrose solutions one after another for one hour each solution, frozen rapidly with liquid nitrogen spray, and then left to stand at […] for two hours. The frozen tumor was sliced with a tissue microtome (Leica, Germany) to make tissue slides which were then dried at room temperature. Thereafter, the tissue slides were immuno-stained with CD31 (Pharmingen, San Diego, Calif.), an antibody that binds specifically to vascular endothelial cells. The immuno-stained slides were observed under a microscope, and the number of blood vessels from 3-5 LPF (low power fields; x100) was counted and averaged. Each group consisted of 5 or 6 members.

β3/HEK293 cells = assay: Apoptosis by annexin V staining, β3/HEK293 cells expressing αvβ3 integrin (Example 8); type: cell-based; conditions: annexin V FACS
Procedure: To identify an integrin that mediates the induction of endothelial cell apoptosis by the fas-1 domain, the present inventors performed a test using HEK293 cells (β3/HEK293 and β5/HEK293) which had been transfected such as to express αvβ3 integrin or αvβ5 integrin.
For this purpose, a β3/HEK293 cell that expresses αvβ3 integrin was prepared in the following manner. In order to construct a human β3 integrin expression vector, RT-PCR using human placenta poly(A)^+ RNA as a template was first performed to produce 2.4-kb β3 cDNA (Chandrika, S. K. et al., J. Biol. Chem., 272:16390-16397, 1997). The amplified β3 cDNA was digested with HindIII/XbaI, and then cloned into a pcDNA3 vector (Invitrogen). The resulting vector was named “β3/pcDNA3”. Thereafter, 1 μg of the β3/pcDNA3 vector was introduced into HEK293 cells (ATCC, catalog No. CRL 1573) by lipofectamin (Gibco). As the vector contains a G418 selection marker, a stable transfected cell was screened using 1 mg/ml of G418. The cell transfected with the β3/pcDNA3 vector was named “β3/HEK293”.
pc/HEK293 cells, β3/HEK293 cells and β5/HEK293 cells were stained with annexin V to identify an integrin that mediates the induction of endothelial cell apoptosis by the fas-1 domain. Each of the cells was suspended in medium at a density of 5×10^5 cells/ml, added to each well of 6-well plated and incubated at 37° C. overnight. […]

B1: fas-1 domain: recombinant protein containing the fourth fas-1 domain of human βig-h3 (SEQ ID NO: 64) (protein, listed as Homo sapiens)
chain: MGTVMDVLKGDNRFSMLVAAIQSAGLTETLNREGVYTVFAPTNEAFRALPPRERSRLLGDAKELANILKYHIGDEILVSGGIGALVRLKSLQGDKLEVSLKNNVVSVNKEPVAEPDIMATNGVVHVITNVL
For B1, the “inhibition of migration of HUVECs to collagen” value (HUVECs [1]; transwell coated with collagen) was “partially inhibited”, the “inhibition of migration of HUVECs toward fibronectin” value (HUVECs [1]; transwell coated with fibronectin) was “completely inhibited” and the “inhibition of migration of HUVECs toward vitronectin” value (HUVECs [1]; transwell coated with vitronectin) was “completely inhibited”. For the same molecule, the “inhibitory effect of endothelial cell migration compared with YH motif-containing peptide fragment of 18 amino acids” value (HUVECs [2]; 20 μM fas-1 domain vs 1,000 μM YH peptide) was “higher”, the “inhibition of migration of endothelial cells promoted by βig-h3” value (HUVECs [2]; transwell coated with βig-h3 His-1-b 10 μg/ml) was “inhibited by the fas-1 domain in a dose-dependent manner” and the “inhibition of endothelial tube formation” value (HUVECs [3]; 5 μM or 10 μM, 16-18 hours) was “inhibited the formation of endothelial tubes on Matrigel in a dose-dependent manner”. For the same molecule, the “in vitro angiogenesis inhibitory effect compared with YH motif-containing peptide fragment of 18 amino acids” value (HUVECs [3]; 10 μM fas-1 domain vs 1 mM YH peptide) was “much higher”, the “number of blood vessels stained with CD31 antibody in tumor” value [4] was “significantly smaller than that of the control” and the “tumor growth rate with time” value [4] was “much lower than that of the control”. For the same molecule, the tumor size [4] was “little or no increase in size even at 10 days after tumor induction” and the “induction of apoptosis of β3/HEK293 cells” value (β3/HEK293 cells) was “induced by the fas-1 domain in a dose-dependent manner”.

From patent publication US20070167369A1, “Novel use of isolated polypeptide comprising four FAS-1 domains, EM1 domain and RGD motif” (KYUNGPOOK NATIONAL UNIVERSITY INDUSTRY-ACADEMIC COOPERATION …, priority 2004, published 2007)
